Patent publication US7790384B2, “HIP1 cancer markers” (The Regents of the University of Michigan, priority 2001, dated 2010)

B1: FLHIP1: wild type full length HIP1 expressed in cells (protein)
chain: MDRMASSMKQVPNPLPKVLSRRGVGAGLEAAERESFERTQTVSINKAINTQEVAVKEKHARTCILGTHHEKGAQTFWSVVNRLPLSSNAVLCWKFCHVFHKLLRDGHPNVLKDSLRYRNELSDMSRMWGYLSEGYGQLCSIYLKLLRTKMEYHTKNPRFPGNLQMSDRQLDEAGESDVNNFSQLTVEMFDYLECELNLFQTVFNSLDMSRSVSVTAAGQCRLAPLIQVILDCSHLYDYTVKLLFKLHSCLPADTLQGHRDRFMEQFTKLKDLFYRSSNLQYFKRLIQIPQLPENPPNFLRASALSEHISPVVVIPAEASSPDSEPVLEKDDLMDMDASQQNLFDNKFDDIFGSSFSSDPFNFNSQNGVNKDEKDHLIERLYREISGLKAQLENMKTESQRVVLQLKGHVSELEADLAEQQHLRQQAADDCEFLRAELDELRRQREDTEKAQRSLSEIERKAQANEQRYSKLKEKYSELVQNHADLLRKNAEVTKQVSMARQAQVDLEREKKELEDSLERISDQGQRKTQEQLEVLESLKQELATSQRELQVLQGSLETSAQSEANWAAEFAELEKERDSLVSGAAHREEELSALRKELQDTQLKLASTEESMCQLAKDQRKMLLVGSRKAAEQVIQDALNQLEEPPLISCAGSADHLLSTVTSISSCIEQLEKSWSQYLACPEDISGLLHSITLLAHLTSDAIAHGATTCLRAPPEPADSLTEACKQYGRETLAYLASLEEEGSLENADSTAMRNCLSKIKAIGEELLPRGLDIKQEELGDLVDKEMAATSAAIETATARIEEMLSKSRAGDTGVKLEVNERILGCCTSLMQAIQVLIVASKDLQREIVESGRGTASPKEFYAKNSRWTEGLISASKAVGWGATVMVDAADLVVQGRGKFEELMVCSHEIAASTAQLVAASKVKADKDSPNLAQLQQASRGVNQATAGVVASTISGKSQIEETDNMDFSSMTLTQIKRQEMDSQVRVLELENELQKERQKLGELRKKHYELAGVAEGWEEGTEASPPTLQEVVTEKESQTNTPYVSVNPCYLSRVCYFPSHRPNPWSPRGSHTTAITQCRGHAHFQRLPPRHPFCLDPWISTASYGGWLGFLVLFFFFKFHSHSQLSQRAHPWGVSRAPQLWLQRWCCPGLSVLHLRLHTDQVLAHPVHAPGSGGAAEQLSSKSRRRVSAFPSSIPAESLCPPLQGRRQQKEGQEGSHSPVPVTRLKNLITCLNGAGEINNTTSLPETVREWSLSSGPSPLAQRRSVGVIPNSFLQTSALASSIGRSFHLLRNQTRKIRCNCSHQGRTLYLVCYPYLLLTSLKQQQPTKRCLEQSELQVLQSSSFCPATSAFKNQKKGQGAGLLLTWIPKQGDHLELLGQRKERTEPAAPTPFSHMPQALAALWTGGQRAHEQLARDGQPNSTFPLLDGPQHLSDLLILGKQRLPSLSIATHWWPSSTSEFLQPGRPLEHAXEGP
modifications: X: residue not identified in the source
notes: wild type full length HIP1 expressed in cells
B2: HIP1/deltaE: dominant negative mutant of HIP1 lacking the ENTH domain (SEQ ID NO: 4) (protein, listed as Homo sapiens)
chain: MFDYLECELNLFQTVFNSLDMSRSVSVTAAGQCRLAPLIQVILDCSHLYDYTVKLLFKLHSCLPADTLQGHRDRFMEQFTKLKDLFYRSSNLQYFKRLIQIPQLPENPPNFLRASALSEHISPVVVIPAEASSPDSEPVLEKDDLMDMDASQQNLFDNKFDDIFGSSFSSDPFNFNSQNGVNKDEKDHLIERLYREISGLKAQLENMKTESQRVVLQLKGHVSELEADLAEQQHLRQQAADDCEFLRAELDELRRQREDTEKAQRSLSEIERKAQANEQRYSKLKEKYSELVQNHADLLRKNAEVTKQVSMARQAQVDLEREKKELEDSLERISDQGQRKTQEQLEVLESLKQELATSQRELQVLQGSLETSAQSEANWAAEFAELEKERDSLVSGAAHREEELSALRKELQDTQLKLASTEESMCQLAKDQRKMLLVGSRKAAEQVIQDALNQLEEPPLISCAGSADHLLSTVTSISSCIEQLEKSWSQYLACPEDISGLLHSITLLAHLTSDAIAHGATTCLRAPPEPADSLTEACKQYGRETLAYLASLEEEGSLENADSTAMRNCLSKIKAIGEELLPRGLDIKQEELGDLVDKEMAATSAAIETATARIEEMLSKSRAGDTGVKLEVNERILGCCTSLMQAIQVLIVASKDLQREIVESGRGTASPKEFYAKNSRWTEGLISASKAVGWGATVMVDAADLVVQGRGKFEELMVCSHEIAASTAQLVAASKVKADKDSPNLAQLQQASRGVNQATAGVVASTISGKSQIEETDNMDFSSMTLTQIKRQEMDSQVRVLELENELQKERQKLGELRKKHYELAGVAEGWEEGTEASPPTLQEVVTEKESQTNTPYVSVNPCYLSRVCYFPSHRPNPWSPRGSHTTAITQCRGHAHFQRLPPRHPFCLDPWISTASYGGWLGFLVLFFFFKFHSHSQLSQRAHPWGVSRAPQLWLQRWCCPGLSVLHLRLHTDQVLAHPVHAPGSGGAAEQLSSKSRRRVSAFPSSIPAESLCPPLQGRRQQKEGQEGSHSPVPVTRLKNLITCLNGAGEINNTTSLPETVREWSLSSGPSPLAQRRSVGVIPNSFLQTSALASSIGRSFHLLRNQTRKIRCNCSHQGRTLYLVCYPYLLLTSLKQQQPTKRCLEQSELQVLQSSSFCPATSAFKNQKKGQGAGLLLTWIPKQGDHLELLGQRKERTEPAAPTPFSHMPQALAALWTGGQRAHEQLARDGQPNSTFPLLDGPQHLSDLLILGKQRLPSLSIATHWWPSSTSEFLQPGRPLEH

System: cellular survival
Experiment: Effect of expression of HIP1 dominant negative mutant on cellular survival
Assay type: cell-based
Conditions: for induction of cell death: expression of construct
Text: The effect of expression of a HIP1 dominant negative mutant on cellular survival was next investigated. […] 39% of HIP1/DE-expressing cells and 50% of caspase 9-expressing cells were apoptotic. […] Expression of the endogenous HIP1, wild type HIP1, HIP1/DE and Caspase 9 was documented by Western blot analysis as shown in the bottom of FIG. 6b.

Molecule | correction of HIP1 deltaE apoptosis (co-expression with HIP1 deltaE, FIG. 12 and 13) | induction of cell death (FIG. 6b) | apoptotic cells (cells expressing the construct, FIG. 6b)
B1 | correction of HIP1 deltaE apoptosis | did not induce cell death | 
B2 |  | promoted cell death | 39%
